Reference: paper doi:10.1101/488049 (bioRxiv, 2018)

Target: T1, KIF1C-GFP (recombinant full-length human KIF1C, 6His-KIF1C-GFP) (human, UniProt O43896 1-1103)
T1 sequence (looked up): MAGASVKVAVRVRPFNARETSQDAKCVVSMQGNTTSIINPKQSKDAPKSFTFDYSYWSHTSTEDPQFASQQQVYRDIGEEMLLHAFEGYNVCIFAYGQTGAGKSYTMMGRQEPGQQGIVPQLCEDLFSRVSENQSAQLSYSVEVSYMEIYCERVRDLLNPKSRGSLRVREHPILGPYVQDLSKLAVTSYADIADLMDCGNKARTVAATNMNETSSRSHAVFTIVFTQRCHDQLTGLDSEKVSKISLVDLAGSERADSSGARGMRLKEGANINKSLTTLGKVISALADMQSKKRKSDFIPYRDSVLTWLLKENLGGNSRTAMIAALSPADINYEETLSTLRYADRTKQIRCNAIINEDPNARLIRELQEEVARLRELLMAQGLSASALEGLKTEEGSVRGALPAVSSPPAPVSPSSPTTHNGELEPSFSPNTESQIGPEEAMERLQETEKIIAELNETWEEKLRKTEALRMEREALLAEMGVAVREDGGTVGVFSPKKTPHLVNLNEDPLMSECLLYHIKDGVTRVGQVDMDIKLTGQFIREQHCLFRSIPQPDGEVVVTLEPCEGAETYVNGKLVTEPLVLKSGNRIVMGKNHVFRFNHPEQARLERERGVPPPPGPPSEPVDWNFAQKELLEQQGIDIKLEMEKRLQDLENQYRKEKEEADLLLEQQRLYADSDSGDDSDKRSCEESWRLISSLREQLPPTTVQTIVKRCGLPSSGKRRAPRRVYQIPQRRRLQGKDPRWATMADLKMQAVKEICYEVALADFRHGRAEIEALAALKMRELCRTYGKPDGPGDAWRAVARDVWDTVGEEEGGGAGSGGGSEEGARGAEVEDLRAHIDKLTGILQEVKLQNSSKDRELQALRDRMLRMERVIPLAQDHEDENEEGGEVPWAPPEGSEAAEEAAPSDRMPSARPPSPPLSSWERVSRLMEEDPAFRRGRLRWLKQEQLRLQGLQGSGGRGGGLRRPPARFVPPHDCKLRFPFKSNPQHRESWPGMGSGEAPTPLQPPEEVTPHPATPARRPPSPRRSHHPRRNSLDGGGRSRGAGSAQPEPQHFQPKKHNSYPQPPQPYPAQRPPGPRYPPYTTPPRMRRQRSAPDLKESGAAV
Assay: cell-based or functional assay

B1: Hook3-SNAPf labelled with Alexa647 (recombinant human Hook3 with a C-terminal SNAP-tag) (natural protein, UniProt Q86VS8 1-718, looked up)
chain: MFSVESLERAELCESLLTWIQTFNVDAPCQTVEDLTNGVVMAQVLQKIDPAYFDENWLNRIKTEVGDNWRLKISNLKKILKGILDYNHEILGQQINDFTLPDVNLIGEHSDAAELGRMLQLILGCAVNCEQKQEYIQAIMMMEESVQHVVMTAIQELMSKESPVSAGNDAYVDLDRQLKKTTEELNEALSAKEEIAQRCHELDMQVAALQEEKSSLLAENQVLMERLNQSDSIEDPNSPAGRRHLQLQTQLEQLQEETFRLEAAKDDYRIRCEELEKEISELRQQNDELTTLADEAQSLKDEIDVLRHSSDKVSKLEGQVESYKKKLEDLGDLRRQVKLLEEKNTMYMQNTVSLEEELRKANAARSQLETYKRQVVELQNRLSEESKKADKLDFEYKRLKEKVDSLQKEKDRLRTERDSLKETIEELRCVQAQEGQLTTQGLMPLGSQESSDSLAAEIVTPEIREKLIRLQHENKMLKLNQEGSDNEKIALLQSLLDDANLRKNELETENRLVNQRLLEVQSQVEELQKSLQDQGSKAEDSVLLKKKLEEHLEKLHEANNELQKKRAIIEDLEPRFNNSSLKIEELQEALRKKEEEMKQMEERYKKYLEKAKSVIRTLDPKQNQGAAPEIQALKNQLQERDRLFHSLEKEYEKTKSQREMEEKYIVSAWYNMGMTLHKKAAEDRLASTGSGQSFLARQRQATSSRRSYPGHVQPATAR
modifications: Alexa Fluor 647 on the SNAP tag (SNAP-Surface Alexa Fluor 647)
For B1, the “landing rate of KIF1C-GFP on microtubules in single molecule assays, 320 nM KIF1C preincubated with 500 nM Hook3-647” value was 2 fold.
